Reference: US20260028402A1 (SANYOU BIOPHARMACEUTICALS, published 2026)

Columns and labels:
human PD-L1 on cells = molecular target: T1, human PD-L1 on cells (human, UniProt Q9NZQ7 19-290); experiment: flow cytometry on HCC827 cells
T1 construct: whole, on cells; Overexpressed on CHO cells or present on HCC827 tumor cells; the cell is named under assay; also called human PD-L1-CHO cells; PD-L1 protein on HCC827 cells
Description: The cells were resuspended in the prepared FACS buffer and counted, and the cell suspension density was adjusted to 2×10⁶ cells/mL. 100 μL of HCC827 cells were added per well to 96-well plates. The plates were centrifuged at 300 g to remove the supernatant. […] The incubated cell mixture was centrifuged at 300 g to remove the supernatant, 200 μL of FACS buffer was added to corresponding wells, and the cells were resuspended with a multichannel pipette. The centrifugation, resuspension and washing steps were repeated twice, and the cells were centrifuged at 300 g to remove the supernatant. […] The incubated cell mixture was centrifuged at 300 g to remove the supernatant, 200 μL of FACS buffer was added to corresponding wells, and the cells were resuspended with a multichannel pipette. The centrifugation, resuspension and washing steps were repeated twice, and the cells were centrifuged at 300 g to remove the supernatant. The PE-labeled anti-biotin flow antibody (Abcam) was added, and the cells were pipetted to mix with a multichannel pipette and incubated at 4° C. for 30 minutes. The cells were centrifuged at 300 g to remove the supernatant, and FACS buffer was added to resuspend the cells. The centrifugation, resuspension and washing steps were repeated twice, and 200 μL of FACS buffer was added per well to resuspend the cells.

mouse PD-L1 on cells = molecular target: T2, mouse PD-L1 on cells (mouse, UniProt Q9EP73 19-290); experiment: flow cytometry on mouse PD-L1-CHO cells
T2 construct: whole, on cells; also called mouse PD-L1-CHO cells
Description: The cells were resuspended with the prepared FACS buffer and counted, and the cell suspension density was adjusted to 2×10⁶ cells/mL. 100 μL of mouse PD-L1-CHO cells and cynomolgus monkey PD-L1-CHO cells were added per well to the 96-well plates, respectively. The plates were centrifuged at 300 g to remove the supernatant. […] The incubated cell mixture was centrifuged at 300 g to remove the supernatant, 200 μL of FACS buffer was added to corresponding wells, and the cells were resuspended with a multichannel pipette. The centrifugation, resuspension and washing steps were repeated twice, and the cells were centrifuged at 300 g to remove the supernatant. The PE-labeled anti-human IgG Fc flow antibody (Abcam, ab98596) was added, and the cells were pipetted to mix with a multichannel pipette and incubated at 4° C. for 30 minutes. The cells were centrifuged at 300 g to remove the supernatant, and FACS buffer was added to resuspend the cells. The centrifugation, resuspension and washing steps were repeated twice, and 200 μL of FACS buffer was added per well to resuspend the cells.

[1] = molecular target: T3, B7-H2 protein (Sino Biological, 11559-H08H) (UniProt O75144 19-258); experiment: ELISA, protein coated at 2 ug/mL; legend: N/A: No binding activity detected
T3 construct: Bought protein
T3 sequence (looked up): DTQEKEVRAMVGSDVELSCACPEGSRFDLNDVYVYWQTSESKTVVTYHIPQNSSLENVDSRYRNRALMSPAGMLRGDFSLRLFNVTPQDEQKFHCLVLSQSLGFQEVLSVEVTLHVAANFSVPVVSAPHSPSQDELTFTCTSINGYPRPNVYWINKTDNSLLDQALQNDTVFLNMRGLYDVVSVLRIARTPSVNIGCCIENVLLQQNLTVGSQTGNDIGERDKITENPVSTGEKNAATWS
Description: (§1) The specific procedures were as follows:
(§2) One day before the experiment, 30 μL of protein dilutions with a final concentration of 2 μg/mL (B7-H1 (i.e., PD-L1), B7-H2, B7-H3, B7-H4, and B7-DC (all proteins were purchased from Sino Biological Inc., catalog numbers 10084-HNAH, 11559-H08H, 11188-H08H, 10738-H08H, and 10292-H08H-B, respectively)) were added to the ELISA plates and the plates were incubated overnight at 4° C. The next day, the ELISA plate was rinsed three times with PBST, then blocked with 150 μL of PBS containing 5% skim milk powder at room temperature for 2 hours. […] The plates were washed three times with PBST, and 30 μL of 1:7000 diluted anti-human IgG Fc-HRP secondary antibody was added per well, followed by incubation at room temperature for 30 minutes. After washing the plate six times with PBST, TMB was added for color development, and the reaction was terminated by adding 2M HCl. The absorbance was read at a wavelength of 450 nm using a microplate reader (Molecular Devices, SpecterMax 190).

[2] = molecular target: T4, B7-H3 protein (Sino Biological, 11188-H08H) (UniProt Q5ZPR3 29-461); experiment: as above
T4 construct: Bought protein
T4 sequence (looked up): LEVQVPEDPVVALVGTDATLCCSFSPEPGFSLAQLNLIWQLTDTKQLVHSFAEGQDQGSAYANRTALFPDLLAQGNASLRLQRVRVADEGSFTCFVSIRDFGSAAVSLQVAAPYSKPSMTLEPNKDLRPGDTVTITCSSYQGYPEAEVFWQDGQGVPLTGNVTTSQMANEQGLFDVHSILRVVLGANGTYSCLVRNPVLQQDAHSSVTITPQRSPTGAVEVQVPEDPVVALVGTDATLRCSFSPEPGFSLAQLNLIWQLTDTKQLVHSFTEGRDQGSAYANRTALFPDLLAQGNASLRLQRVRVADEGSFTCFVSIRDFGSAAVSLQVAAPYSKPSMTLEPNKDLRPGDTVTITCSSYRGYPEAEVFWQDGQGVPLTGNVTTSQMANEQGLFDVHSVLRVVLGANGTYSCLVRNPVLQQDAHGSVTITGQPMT
Description: as §1, §2

[3] = molecular target: T5, B7-H4 protein (Sino Biological, 10738-H08H) (UniProt Q7Z7D3 25-258); experiment: as above
T5 construct: Bought protein
T5 sequence (looked up): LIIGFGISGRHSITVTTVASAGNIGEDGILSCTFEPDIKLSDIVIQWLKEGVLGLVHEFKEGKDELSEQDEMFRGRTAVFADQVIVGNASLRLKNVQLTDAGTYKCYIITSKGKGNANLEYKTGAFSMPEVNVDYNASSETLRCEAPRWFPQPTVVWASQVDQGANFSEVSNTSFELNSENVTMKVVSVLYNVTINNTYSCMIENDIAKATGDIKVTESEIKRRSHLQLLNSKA
Description: as §1, §2

[4] = molecular target: T6, B7-DC protein (Sino Biological, 10292-H08H-B) (UniProt Q9BQ51 20-220); experiment: as above
T6 construct: Bought protein
T6 sequence (looked up): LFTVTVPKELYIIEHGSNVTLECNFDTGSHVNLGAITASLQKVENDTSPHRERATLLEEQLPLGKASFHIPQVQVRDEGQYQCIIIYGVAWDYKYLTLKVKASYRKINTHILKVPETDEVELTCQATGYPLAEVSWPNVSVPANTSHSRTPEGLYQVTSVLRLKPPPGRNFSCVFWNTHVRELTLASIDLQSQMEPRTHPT
Description: as §1, §2

T1 sequence (Q9NZQ7 19-290): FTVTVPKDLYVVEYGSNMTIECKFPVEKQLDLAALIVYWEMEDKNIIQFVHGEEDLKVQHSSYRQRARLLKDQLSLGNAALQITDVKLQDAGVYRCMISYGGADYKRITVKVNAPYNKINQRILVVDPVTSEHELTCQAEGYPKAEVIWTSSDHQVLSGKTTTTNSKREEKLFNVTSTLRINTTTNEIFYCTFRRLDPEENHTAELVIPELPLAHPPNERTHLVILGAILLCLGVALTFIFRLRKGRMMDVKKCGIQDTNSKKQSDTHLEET
T2 sequence (Q9EP73 19-290): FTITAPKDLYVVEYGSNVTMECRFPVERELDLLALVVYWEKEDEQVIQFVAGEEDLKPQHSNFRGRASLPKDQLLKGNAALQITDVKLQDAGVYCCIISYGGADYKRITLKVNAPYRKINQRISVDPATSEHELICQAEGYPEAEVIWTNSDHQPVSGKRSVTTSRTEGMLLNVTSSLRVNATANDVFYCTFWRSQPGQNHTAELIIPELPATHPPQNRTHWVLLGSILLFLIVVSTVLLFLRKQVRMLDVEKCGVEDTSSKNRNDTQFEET

B1: m18 (antibody, human IgG1, V domains shown)
VH: EVQLVESGGGLVQPGGSLRLSCAASRTDSNIHGMHWYRQAPGKGREWVGMIFIDGNTIVTDSVKGRFTISRDNAKNTLYLQMNTLRAEDTAVYYCAADSRGYGRAWGQGTTVTVSS
notes: also called antibody m18; anti-PD-L1 antibody m18
binding result (human PD-L1 on cells): binds | binding result (mouse PD-L1 on cells): binds | binding result [1]: no binding | binding result [2]: no binding | binding result [3]: no binding | binding result [4]: no binding
